Assay results taken from publication PMC4173154 (Genes & Development, 2014).

Target: native Drosophila core histones (Drosophila, UniProt P84051 1-124; P02283 1-123; P02299 1-136; P84040 1-103)
Assay: co-sedimentation

binding result: binds
B1: recombinant Drosophila NLP, C-terminal 6-His tag (natural protein)
chain: MAEESFYGVTLTAESDSVTWDVDEDYARGQKLVIKQILLGAEAKENEFNVVEVNTPKDSVQIPIAVLKAGETRAVNPDVEFYESKVTFKLIKGSGPVYIHGHNIKDDVEVVDMEEDDEEDDVAEDEEDEHPKKRAKIENAADGKNAKNNKKK
